What was measured:
[1] = target: Lotus japonicus phytoglobin LjGlb3-1, recombinant (Lotus japonicus) (UniProt P0DO64); experiment: SDS-PAGE with immunoblot (anti-NO2-Tyr and protein-specific antibodies); recombinant protein (20 μM in the methods, 5–10 μM in the legend) incubated with 500 μM SIN-1 (peroxynitrite generator) for 2 h at 30 °C in 50 mM KPi pH 7.4; 15% SDS-PAGE
[2] = target: Lotus japonicus phytoglobin LjGlb3-1, recombinant (Lotus japonicus) (UniProt P0DO64); experiment: SDS-PAGE under non-reducing conditions with Coomassie staining and immunoblot; recombinant protein (20 μM in the methods, 10 μM in the legend) untreated, with 500 μM DTT or with 200–500 μM H2O2, 1 h, 50 mM KPi pH 7.4; 15% SDS-PAGE; DTT made the dimer almost totally disappear, H2O2 caused partial dimerization

stoichiometry N [1]: 2
stoichiometry N [2]: 2
Substance: Lotus japonicus phytoglobin LjGlb3-1, recombinant (from UniProt P0DO64 1-168) (natural protein)

From article PMC11103110
